Test results as given in the supplement of paper PMC10567573.

B1: INTS3 (parent)
chain: KKREFRFHPIKETVVEEPVDITPY

Variants of: B1
Test: protein stability index of a GFP-peptide fusion (GPS, HEK-293T) (PSI 1-6); higher = more stable
Conditions: c terminus: a fixed tail appended
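Further: lentivirally expressed fusions sorted by FACS into six bins by GFP to DsRed ratio, PSI derived from sequencing read proportions per bin multiplied by bin number.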

| Variant | protein stability index |
| --- | --- |
| KKAEFRFHPIKETVVEEPVDITPY | 1.82 |
| KKREFRFHPIVETVVEEPVDITPY | 2.36 |
| KKREFRFHPIKETVREEPVDITPY | 1.98 |
| KKREFCFHPIKETVVEEPVDITPY | 3.87 |
| KKREFRFHPIKETVVEEYVDITPY | 3.25 |
| KKREFRFHPIKETVVEEPVDIYPY | 2.26 |
| KKREFRFHPIKGTVVEEPVDITPY | 2.93 |
| KKREFRFHPIKETVVEEPVWITPY | 1.6 |
| KKREFRFHPIKETVFEEPVDITPY | 1.91 |
| KKRNFRFHPIKETVVEEPVDITPY | 1.48 |
| KKREFRFHPIKETVVEEPVDIIPY | 1.96 |
| KKQEFRFHPIKETVVEEPVDITPY | 1.89 |
| KKREFRKHPIKETVVEEPVDITPY | 4.39 |
| KKREFRFHPIKETVVEEPVGITPY | 2.15 |
| KAREFRFHPIKETVVEEPVDITPY | 1.56 |
| KKREFRFHPIKETVVEEPVDITPS | 1.84 |
| KKRMFRFHPIKETVVEEPVDITPY | 2.04 |
| KKREFRFLPIKETVVEEPVDITPY | 3.97 |
| KKREFRFHPIKEIVVEEPVDITPY | 1.58 |
| KKRPFRFHPIKETVVEEPVDITPY | 2.62 |
| KKREFRFHPIKETVVEEKVDITPY | 2.62 |
| KKREFRFHPIKETVVEEPEDITPY | 2.28 |
| KKREFRFHPIKETVVEDPVDITPY | 1.79 |
| KNREFRFHPIKETVVEEPVDITPY | 1.82 |

| Variant | protein stability index |
| --- | --- |
| KKREFRFHHIKETVVEEPVDITPY | 2.83 |
| KKREFRFHPIKFTVVEEPVDITPY | 2.96 |
| KKREDRFHPIKETVVEEPVDITPY | 4.4 |
| RKREFRFHPIKETVVEEPVDITPY | 1.84 |
| KKREFRFHPIKETLVEEPVDITPY | 1.82 |
| KKREFRFHTIKETVVEEPVDITPY | 2.42 |
| KKREFRFHPIKETVVEEPVDISPY | 2.33 |
| KKREFRFHPIKMTVVEEPVDITPY | 2.43 |
| KKREFRFHPIKETVYEEPVDITPY | 1.84 |
| KKREFRFHPIDETVVEEPVDITPY | 2.72 |
| KKRKFRFHPIKETVVEEPVDITPY | 2.79 |
| KKREFRFHPIKETVVEGPVDITPY | 2.26 |
| KKREFRFHPIKEAVVEEPVDITPY | 1.92 |
| KKREFRRHPIKETVVEEPVDITPY | 4.6 |
| KKREFRFHPIKNTVVEEPVDITPY | 1.86 |
| KKREFRFHPIKETVVEEPVDITPW | 1.88 |
| KKREFRFHPIKETVVAEPVDITPY | 1.73 |
| KKREFRFHPIKETVVEEPVDCTPY | 2.01 |
| KKREFRFHNIKETVVEEPVDITPY | 3.02 |
| KKREFRFHPIKETVVEHPVDITPY | 1.62 |
| KKREFRFHPAKETVVEEPVDITPY | 2.08 |
| VKREFRFHPIKETVVEEPVDITPY | 2.74 |
| KKRERRFHPIKETVVEEPVDITPY | 4.56 |
| KKREFRFHPIKETVVEEPVYITPY | 2.16 |

| Variant | protein stability index |
| --- | --- |
| KKRRFRFHPIKETVVEEPVDITPY | 2.86 |
| KKREFRFDPIKETVVEEPVDITPY | 4.47 |
| KKREFRFHPIKETVVEEDVDITPY | 2.12 |
| KKREFRFHPIKRTVVEEPVDITPY | 1.94 |
| KKREFRFHPIKETWVEEPVDITPY | 1.91 |
| KKREFRFHPIKETVVETPVDITPY | 2.13 |
| KKREFRFHPIKETVVEFPVDITPY | 1.89 |
| KKLEFRFHPIKETVVEEPVDITPY | 1.61 |
| KKREFRFHPIKETVVQEPVDITPY | 1.86 |
| KKREFRFHPIKETHVEEPVDITPY | 1.89 |
| KKREFRFHPIKETVVEEVVDITPY | 1.83 |
| KKREFRFHPHKETVVEEPVDITPY | 2.09 |
| KKREFAFHPIKETVVEEPVDITPY | 3.97 |
| KKREFRFHPMKETVVEEPVDITPY | 1.87 |
| KKREFRFHPIPETVVEEPVDITPY | 2.33 |
| KKREFRFHPIKETVVEEPVDIRPY | 1.99 |
| KKREFRFHPIKETVVEEPIDITPY | 1.51 |
| KKREARFHPIKETVVEEPVDITPY | 4.36 |
| KKREFRIHPIKETVVEEPVDITPY | 4.23 |
| KKREFRFRPIKETVVEEPVDITPY | 4.07 |
| KKREFRFHPIKETVVEEPVDIGPY | 2.03 |
| KKREKRFHPIKETVVEEPVDITPY | 4.75 |
| KKREFRFHPIMETVVEEPVDITPY | 2.64 |
| HKREFRFHPIKETVVEEPVDITPY | 1.73 |

| Variant | protein stability index |
| --- | --- |
| KKREFRFHPIKETFVEEPVDITPY | 1.71 |
| KKREFRFHPIKETVVEEPVDLTPY | 2.01 |
| KKREFRFHPIYETVVEEPVDITPY | 2.7 |
| KTREFRFHPIKETVVEEPVDITPY | 2.14 |
| KKREFRFHPIKECVVEEPVDITPY | 2.38 |
| KKREFRFHPIKETVVEEPVDIEPY | 1.97 |
| KKREFRFHPIKETVVEEPVDIDPY | 2.12 |
| KKREFRFHPIKETVVEEPVNITPY | 2.2 |
| KKREFRFHPIKEDVVEEPVDITPY | 2.19 |
| KKWEFRFHPIKETVVEEPVDITPY | 1.44 |
| KKRTFRFHPIKETVVEEPVDITPY | 2.07 |
| KKREFRLHPIKETVVEEPVDITPY | 4.21 |
| KKREFRFHPIKETVVEEPVDIWPY | 1.3 |
| KVREFRFHPIKETVVEEPVDITPY | 1.37 |
| KKREFRFHPIKYTVVEEPVDITPY | 2 |
| KKREFRFHPIKETVVEEMVDITPY | 1.99 |
| KKREFRTHPIKETVVEEPVDITPY | 4.79 |
| KKREFRFHPIKETVVEEPVQITPY | 2.02 |
| KKREFRFHPIKETVVEEPGDITPY | 1.98 |
| KKREFRFHPIKETVVDEPVDITPY | 2.18 |
| KKREFRFHPIKETVVENPVDITPY | 2.19 |
| KKREFRFHPIKETVVEEPKDITPY | 1.88 |
